According to patent US20250304667A1 (ALLERGAN, published 2025):
Read-outs that look alike come from different tables or passages of the source.

B1: H2L1-IgG (antibody, V domains shown)
VH: EVQLVQSGAEVKKPGASVKVSCKASGYTFTDEYMNWVRQAPGKSLEWVGYINPNNGGADYNQKFQGRVTITVDQSASTAYMELSSLRSEDTAVYFCARLGYSNPYFDFWGQGTLVTVSS
VL: DIVLTQSPDSLAVSLGERATINCKASQDVNTAVAWYQQKPDQSPKLLIYWASTRHTGVPARFTGSGSGTDYTLTISSLQAEDVAVYFCQQHHVSPWTFGGGTKVEIK
B2: H5L1-IgG (antibody, V domains shown)
VH: QVQLKQSGAEVKKPGASVKVSCKASGYTFTDEYMNWVRQAPGKSLEWMGYINPNNGGADYNQKFQGRVTMTVDQSISTAYMELSRLRSDDTAVYFCARLGYSNPYFDFWGQGTLVTVSS
VL: DIVLTQSPDSLAVSLGERATINCKASQDVNTAVAWYQQKPDQSPKLLIYWASTRHTGVPARFTGSGSGTDYTLTISSLQAEDVAVYFCQQHHVSPWTFGGGTKVEIK
B3: H3L2-Fab (Fab, V domains shown)
VH: QVQLVQSGAEVKKPGASVKVSCKASGYTFTDEYMNWVRQAPGQSLEWMGYINPNNGGADYNPSLKSRVTISVDQSISTAYMELSRLRSDDTAVYFCARLGYSNPYFDFWGQGTLVTVSS
VL: DIVLTQSPATLSLSPGERATLSCRASQDVNTAVAWYQQKPDQSPKLLIYWASTRHTGVPARFTGSGSGTDYTLTISSLQPEDFAVYFCQQHHVSPWTFGGGTKVEIK
B4: H3L1-Fab (Fab, V domains shown)
VH: QVQLVQSGAEVKKPGASVKVSCKASGYTFTDEYMNWVRQAPGQSLEWMGYINPNNGGADYNPSLKSRVTISVDQSISTAYMELSRLRSDDTAVYFCARLGYSNPYFDFWGQGTLVTVSS
VL: DIVLTQSPDSLAVSLGERATINCKASQDVNTAVAWYQQKPDQSPKLLIYWASTRHTGVPARFTGSGSGTDYTLTISSLQAEDVAVYFCQQHHVSPWTFGGGTKVEIK
B5: H5L1-Fab (Fab, V domains shown)
VH: QVQLKQSGAEVKKPGASVKVSCKASGYTFTDEYMNWVRQAPGKSLEWMGYINPNNGGADYNQKFQGRVTMTVDQSISTAYMELSRLRSDDTAVYFCARLGYSNPYFDFWGQGTLVTVSS
VL: DIVLTQSPDSLAVSLGERATINCKASQDVNTAVAWYQQKPDQSPKLLIYWASTRHTGVPARFTGSGSGTDYTLTISSLQAEDVAVYFCQQHHVSPWTFGGGTKVEIK
B6: H5L2-Fab (Fab, V domains shown)
VH: QVQLKQSGAEVKKPGASVKVSCKASGYTFTDEYMNWVRQAPGKSLEWMGYINPNNGGADYNQKFQGRVTMTVDQSISTAYMELSRLRSDDTAVYFCARLGYSNPYFDFWGQGTLVTVSS
VL: DIVLTQSPATLSLSPGERATLSCRASQDVNTAVAWYQQKPDQSPKLLIYWASTRHTGVPARFTGSGSGTDYTLTISSLQPEDFAVYFCQQHHVSPWTFGGGTKVEIK
B7: H1L2-IgG (antibody, V domains shown)
VH: QVQLVQSGAEVKKPGASVKVSCKASGYTFTDEYMNWVRQAPGQSLEWMGYINPNNGGADYNQKFQGRVTMTVDQSISTAYMELSRLRSDDTAVYFCARLGYSNPYFDFWGQGTLVTVSS
VL: DIVLTQSPATLSLSPGERATLSCRASQDVNTAVAWYQQKPDQSPKLLIYWASTRHTGVPARFTGSGSGTDYTLTISSLQPEDFAVYFCQQHHVSPWTFGGGTKVEIK
B8: H1L3-Fab (Fab, V domains shown)
VH: QVQLVQSGAEVKKPGASVKVSCKASGYTFTDEYMNWVRQAPGQSLEWMGYINPNNGGADYNQKFQGRVTMTVDQSISTAYMELSRLRSDDTAVYFCARLGYSNPYFDFWGQGTLVTVSS
VL: DIVLTQSPSFLSASVGDRVTITCQASQDVNTAVAWYLQKPGKSPKLLIYWASTRHTGVPARFTGSGSGTDYTLTISSLQPEDFAVYFCQQHHVSPWTFGGGTKVEIK
B9: H5L2-IgG (antibody, V domains shown)
VH: QVQLKQSGAEVKKPGASVKVSCKASGYTFTDEYMNWVRQAPGKSLEWMGYINPNNGGADYNQKFQGRVTMTVDQSISTAYMELSRLRSDDTAVYFCARLGYSNPYFDFWGQGTLVTVSS
VL: DIVLTQSPATLSLSPGERATLSCRASQDVNTAVAWYQQKPDQSPKLLIYWASTRHTGVPARFTGSGSGTDYTLTISSLQPEDFAVYFCQQHHVSPWTFGGGTKVEIK
B10: H5L3-IgG (antibody, V domains shown)
VH: QVQLKQSGAEVKKPGASVKVSCKASGYTFTDEYMNWVRQAPGKSLEWMGYINPNNGGADYNQKFQGRVTMTVDQSISTAYMELSRLRSDDTAVYFCARLGYSNPYFDFWGQGTLVTVSS
VL: DIVLTQSPSFLSASVGDRVTITCQASQDVNTAVAWYLQKPGKSPKLLIYWASTRHTGVPARFTGSGSGTDYTLTISSLQPEDFAVYFCQQHHVSPWTFGGGTKVEIK
B11: H2L2-Fab (Fab, V domains shown)
VH: EVQLVQSGAEVKKPGASVKVSCKASGYTFTDEYMNWVRQAPGKSLEWVGYINPNNGGADYNQKFQGRVTITVDQSASTAYMELSSLRSEDTAVYFCARLGYSNPYFDFWGQGTLVTVSS
VL: DIVLTQSPATLSLSPGERATLSCRASQDVNTAVAWYQQKPDQSPKLLIYWASTRHTGVPARFTGSGSGTDYTLTISSLQPEDFAVYFCQQHHVSPWTFGGGTKVEIK
B12: H1L2-Fab (Fab, V domains shown)
VH: QVQLVQSGAEVKKPGASVKVSCKASGYTFTDEYMNWVRQAPGQSLEWMGYINPNNGGADYNQKFQGRVTMTVDQSISTAYMELSRLRSDDTAVYFCARLGYSNPYFDFWGQGTLVTVSS
VL: DIVLTQSPATLSLSPGERATLSCRASQDVNTAVAWYQQKPDQSPKLLIYWASTRHTGVPARFTGSGSGTDYTLTISSLQPEDFAVYFCQQHHVSPWTFGGGTKVEIK
B13: H3L1-IgG (antibody, V domains shown)
VH: QVQLVQSGAEVKKPGASVKVSCKASGYTFTDEYMNWVRQAPGQSLEWMGYINPNNGGADYNPSLKSRVTISVDQSISTAYMELSRLRSDDTAVYFCARLGYSNPYFDFWGQGTLVTVSS
VL: DIVLTQSPDSLAVSLGERATINCKASQDVNTAVAWYQQKPDQSPKLLIYWASTRHTGVPARFTGSGSGTDYTLTISSLQAEDVAVYFCQQHHVSPWTFGGGTKVEIK
B14: H3L2-IgG (antibody, V domains shown)
VH: QVQLVQSGAEVKKPGASVKVSCKASGYTFTDEYMNWVRQAPGQSLEWMGYINPNNGGADYNPSLKSRVTISVDQSISTAYMELSRLRSDDTAVYFCARLGYSNPYFDFWGQGTLVTVSS
VL: DIVLTQSPATLSLSPGERATLSCRASQDVNTAVAWYQQKPDQSPKLLIYWASTRHTGVPARFTGSGSGTDYTLTISSLQPEDFAVYFCQQHHVSPWTFGGGTKVEIK
B15: H2L2-IgG (antibody, V domains shown)
VH: EVQLVQSGAEVKKPGASVKVSCKASGYTFTDEYMNWVRQAPGKSLEWVGYINPNNGGADYNQKFQGRVTITVDQSASTAYMELSSLRSEDTAVYFCARLGYSNPYFDFWGQGTLVTVSS
VL: DIVLTQSPATLSLSPGERATLSCRASQDVNTAVAWYQQKPDQSPKLLIYWASTRHTGVPARFTGSGSGTDYTLTISSLQPEDFAVYFCQQHHVSPWTFGGGTKVEIK
B16: H1L1-Fab (Fab, V domains shown)
VH: QVQLVQSGAEVKKPGASVKVSCKASGYTFTDEYMNWVRQAPGQSLEWMGYINPNNGGADYNQKFQGRVTMTVDQSISTAYMELSRLRSDDTAVYFCARLGYSNPYFDFWGQGTLVTVSS
VL: DIVLTQSPDSLAVSLGERATINCKASQDVNTAVAWYQQKPDQSPKLLIYWASTRHTGVPARFTGSGSGTDYTLTISSLQAEDVAVYFCQQHHVSPWTFGGGTKVEIK
B17: H2L1-Fab (Fab, V domains shown)
VH: EVQLVQSGAEVKKPGASVKVSCKASGYTFTDEYMNWVRQAPGKSLEWVGYINPNNGGADYNQKFQGRVTITVDQSASTAYMELSSLRSEDTAVYFCARLGYSNPYFDFWGQGTLVTVSS
VL: DIVLTQSPDSLAVSLGERATINCKASQDVNTAVAWYQQKPDQSPKLLIYWASTRHTGVPARFTGSGSGTDYTLTISSLQAEDVAVYFCQQHHVSPWTFGGGTKVEIK
B18: H1L1-IgG (antibody, V domains shown)
VH: QVQLVQSGAEVKKPGASVKVSCKASGYTFTDEYMNWVRQAPGQSLEWMGYINPNNGGADYNQKFQGRVTMTVDQSISTAYMELSRLRSDDTAVYFCARLGYSNPYFDFWGQGTLVTVSS
VL: DIVLTQSPDSLAVSLGERATINCKASQDVNTAVAWYQQKPDQSPKLLIYWASTRHTGVPARFTGSGSGTDYTLTISSLQAEDVAVYFCQQHHVSPWTFGGGTKVEIK
B19: H3L4-IgG (antibody, V domains shown)
VH: QVQLVQSGAEVKKPGASVKVSCKASGYTFTDEYMNWVRQAPGQSLEWMGYINPNNGGADYNPSLKSRVTISVDQSISTAYMELSRLRSDDTAVYFCARLGYSNPYFDFWGQGTLVTVSS
VL: DIVLTQSPATLSLSPGERATLSCRASQDVNTAVAWYQQKPGKSPKLLIYWASTRHTGVPARFTGSGSGTDYTLTISSLQPEDFAVYFCQQHHVSPWTFGGGTKVEIK
B20: H3L3-IgG (antibody, V domains shown)
VH: QVQLVQSGAEVKKPGASVKVSCKASGYTFTDEYMNWVRQAPGQSLEWMGYINPNNGGADYNPSLKSRVTISVDQSISTAYMELSRLRSDDTAVYFCARLGYSNPYFDFWGQGTLVTVSS
VL: DIVLTQSPSFLSASVGDRVTITCQASQDVNTAVAWYLQKPGKSPKLLIYWASTRHTGVPARFTGSGSGTDYTLTISSLQPEDFAVYFCQQHHVSPWTFGGGTKVEIK

Legend:
Assay in all cases: cell-based or functional assay
[1] = molecular target: T1, human complement Component 5 (C5) (human, UniProt P01031 19-1676, limits assumed)
[2] = molecular target: T1, human complement Component 5 (C5); remark: listed apart in the source
[3] = molecular target: T1, human complement Component 5 (C5); remark: listed apart in the source
[4] = molecular target: T1, human complement Component 5 (C5); remark: listed apart in the source
[5] = molecular target: T1, human complement Component 5 (C5); remark: listed apart in the source

T1 sequence (P01031 19-1676 limits assumed): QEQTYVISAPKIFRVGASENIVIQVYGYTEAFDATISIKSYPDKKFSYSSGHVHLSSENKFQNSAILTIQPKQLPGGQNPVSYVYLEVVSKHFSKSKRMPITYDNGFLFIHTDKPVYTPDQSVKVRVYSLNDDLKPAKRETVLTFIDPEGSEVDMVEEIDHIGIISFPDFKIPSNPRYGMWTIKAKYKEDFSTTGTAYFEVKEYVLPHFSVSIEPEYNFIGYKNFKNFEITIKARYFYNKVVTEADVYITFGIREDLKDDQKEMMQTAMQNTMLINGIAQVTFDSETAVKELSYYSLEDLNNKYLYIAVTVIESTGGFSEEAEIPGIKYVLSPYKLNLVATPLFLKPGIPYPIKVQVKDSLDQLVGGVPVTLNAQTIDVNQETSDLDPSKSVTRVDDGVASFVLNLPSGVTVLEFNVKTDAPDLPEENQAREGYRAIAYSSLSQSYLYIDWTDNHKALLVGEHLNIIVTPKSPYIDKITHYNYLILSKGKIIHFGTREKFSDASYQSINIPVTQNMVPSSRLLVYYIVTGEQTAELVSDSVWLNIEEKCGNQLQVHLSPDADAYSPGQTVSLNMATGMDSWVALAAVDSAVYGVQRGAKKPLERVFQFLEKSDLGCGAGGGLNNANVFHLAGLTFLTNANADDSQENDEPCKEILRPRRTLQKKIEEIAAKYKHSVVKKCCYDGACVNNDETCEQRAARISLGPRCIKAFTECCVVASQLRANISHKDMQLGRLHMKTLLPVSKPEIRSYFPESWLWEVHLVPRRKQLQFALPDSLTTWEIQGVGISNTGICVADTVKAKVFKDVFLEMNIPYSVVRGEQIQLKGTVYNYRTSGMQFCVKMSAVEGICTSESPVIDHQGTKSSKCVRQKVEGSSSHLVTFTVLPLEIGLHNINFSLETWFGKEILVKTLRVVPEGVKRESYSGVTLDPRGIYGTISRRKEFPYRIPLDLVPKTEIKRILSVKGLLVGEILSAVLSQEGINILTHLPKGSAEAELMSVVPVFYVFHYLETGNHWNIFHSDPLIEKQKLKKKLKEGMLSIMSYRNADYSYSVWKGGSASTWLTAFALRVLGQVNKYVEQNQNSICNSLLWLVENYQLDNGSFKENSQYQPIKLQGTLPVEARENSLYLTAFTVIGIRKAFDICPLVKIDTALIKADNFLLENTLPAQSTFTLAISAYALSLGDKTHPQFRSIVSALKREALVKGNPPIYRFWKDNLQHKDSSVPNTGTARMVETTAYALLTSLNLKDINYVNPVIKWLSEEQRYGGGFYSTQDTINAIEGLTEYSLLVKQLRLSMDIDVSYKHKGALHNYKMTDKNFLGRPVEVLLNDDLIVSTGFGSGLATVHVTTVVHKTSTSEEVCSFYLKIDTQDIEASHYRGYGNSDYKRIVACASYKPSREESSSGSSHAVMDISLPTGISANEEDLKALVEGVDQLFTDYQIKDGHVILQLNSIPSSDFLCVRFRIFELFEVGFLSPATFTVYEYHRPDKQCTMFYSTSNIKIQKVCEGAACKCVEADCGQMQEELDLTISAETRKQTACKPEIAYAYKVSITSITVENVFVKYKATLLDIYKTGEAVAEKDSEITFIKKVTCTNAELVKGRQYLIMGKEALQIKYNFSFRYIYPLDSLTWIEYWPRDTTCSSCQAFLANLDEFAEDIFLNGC

| Binder | IC50 (read off the curve), % Inhibition [1] | IC50 (read off the curve), OD (450nM) [3] | IC50 (read off the curve), % Inhibition [4] | also measured |
| --- | --- | --- | --- | --- |
| B1 | ~3 µg/mL |  |  |  |
| B2 | ~2 µg/mL |  |  | IC50 (read off the curve), OD (450nM) [2]: ~0.5 µg/mL |
| B3 |  | ~0.5 µg/mL |  |  |
| B4 |  | ~0.5 µg/mL |  |  |
| B5 |  |  | ~2 µg/mL |  |
| B6 |  | ~0.4 µg/mL | ~2 µg/mL |  |
| B7 | ~3 µg/mL |  |  |  |
| B8 |  |  | ~2 µg/mL |  |
| B9 | ~3 µg/mL |  |  | IC50 (read off the curve), OD (450nM) [2]: ~0.7 µg/mL |
| B10 | ~3 µg/mL |  |  |  |
| B11 |  | ~0.5 µg/mL |  |  |
| B12 |  | ~0.4 µg/mL | ~2 µg/mL |  |
| B13 |  |  |  | IC50 (read off the curve), OD (450nM) [2]: ~0.7 µg/mL |
| B14 |  |  |  | IC50 (read off the curve), OD (450nM) [2]: ~0.8 µg/mL |
| B15 |  |  |  | IC50 (read off the curve), OD (450nM) [2]: ~0.7 µg/mL |
| B16 |  | ~0.3 µg/mL | ~2 µg/mL |  |
| B17 |  | ~0.5 µg/mL | ~2 µg/mL |  |
| B18 | ~3 µg/mL |  |  |  |
| B19 |  |  |  | IC50 (read off the curve), OD (450nM) [5]: ~0.8 µg/mL |
| B20 |  |  |  | IC50 (read off the curve), OD (450nM) [5]: ~0.8 µg/mL |
